Data: publication PMC3557595 (Journal of molecular biology, 2012)

Tests used:
[1] = target: GS-CENP-A^Hs(60-140)-LVPR and GS-H4^Hs(22-103) (human, UniProt P49450 60-140; P62805 22-103); assay: SEC
[2] = target: GS-CENP-A(60-140)-LVPR and H4^Hs(1-103) (human, UniProt P49450 60-140; P62805 1-103); assay: SEC
[3] = target: Hs H3.1(1-136)(S88Q/G103H)-His6/H4(1-103) (human, UniProt P68431 1-136; P62805 1-103, S88Q | G103H); assay: pull-down

Measured: binding result

B1: Hs GS-HJURP(2-81) (domain or fragment)
chain: GSLGTLRAMEGEDVEDDQLLQKLRASRRRFQRRMQRLIEKYNQPFEDTPVVQMATLTYETPQGLRIWGGRLIKERNEGEIQD
binds: [1] | [2] | [3]
